Here are results for one molecule from paper PMC6297234, “aPKC controls endothelial growth by modulating c-Myc via FoxO1 DNA-binding ability”.

In the data set the target is GST-FoxO1 DBD S218D (Homo sapiens, UniProt Q12778 151-266, S218D). As to the kind of experiment: EMSA; 1 µM protein, 1 nM DNA, 1 ng/mL poly dI-dC; 20 mM Tris pH 8.0, 50 mM KCl, 5% glycerol, 2 mM DTT, 0.2 mM EDTA, 2 mM MgCl2, 0.1 mg/mL BSA, 1 ng/mL poly dI-dC; RT 30 min; 6% gel in 0.5X TBE at 4 °C. The conditions noted are these: protein: recombinant; tags: GST (pDEST15, N-terminal); blunt.
Chain of GST-FoxO1 DBD S218D (Q12778 151-266 S218D): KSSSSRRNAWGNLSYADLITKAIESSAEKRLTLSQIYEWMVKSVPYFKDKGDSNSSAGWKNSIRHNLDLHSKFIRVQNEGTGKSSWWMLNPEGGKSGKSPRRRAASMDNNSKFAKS

B1: FoxO DBE duplex (dsDNA)
DNA 1: CAAAATGTAAACAAGA
DNA 2: TCTTGTTTACATTTTG
Take B1: the binding result is recorded as “no binding”.
